According to patent US20210062213A1 (UT BATTELLE, published 2021):

T1: cCFP-DGCR14/ESS2 (human DGCR14/ESS2 fused with the C-terminal fragment of CFP) (Homo sapiens, UniProt Q96DF8 1-476)
T1 construct: BiFC fusion transiently expressed in Arabidopsis leaf mesophyll protoplasts; also called Has DGCR14/ESS2; NM_022719; not shown: C-terminal fragment of CFP (cCFP) from vector pSATI-cCFP-C
T1 sequence: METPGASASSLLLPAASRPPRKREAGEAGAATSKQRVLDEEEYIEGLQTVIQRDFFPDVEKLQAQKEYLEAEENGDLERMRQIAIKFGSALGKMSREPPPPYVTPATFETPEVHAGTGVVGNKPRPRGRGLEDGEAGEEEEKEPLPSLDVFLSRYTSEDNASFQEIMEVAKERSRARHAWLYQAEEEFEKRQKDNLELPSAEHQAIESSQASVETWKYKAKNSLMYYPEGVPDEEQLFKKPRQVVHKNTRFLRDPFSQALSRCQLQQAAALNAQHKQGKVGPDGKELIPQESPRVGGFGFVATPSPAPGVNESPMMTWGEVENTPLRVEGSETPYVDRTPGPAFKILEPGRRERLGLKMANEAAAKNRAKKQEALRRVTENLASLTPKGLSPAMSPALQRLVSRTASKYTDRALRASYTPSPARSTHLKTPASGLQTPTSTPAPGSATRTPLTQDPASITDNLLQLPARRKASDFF

B1: nVenus-U2B (U2 SMALL NUCLEAR RIBONUCLEOPROTEIN B fused with the N-terminal fragment of Venus) (other, Arabidopsis, UniProt O22922 1-232, looked up)
chain: MLTADIPPNQSIYIQNLNERIKKEELKRSLYCLFSQFGRILDVVALKTPKLRGQAWVTFSEVTAAGHAVRQMQNFPFYDKPMRLQYAKAKSDCLAKAEGTFVPKDKKRKQEEKVERKREDSQRPNTANGPSANGPSANNGVPAPSFQPSGQETMPPNNILFIQNLPHETTSMMLQLLFEQYPGFKEIRMIDAKPGIAFVEYEDDVQASIAMQPLQGFKITPQNPMVISFAKK
notes: BiFC fusion transiently expressed in Arabidopsis protoplasts; also called AT2G30260; not shown: N-terminal fragment of Venus (nVenus) from vector pSATI-nVenus-C
B2: cCFP-DGCR14l (Arabidopsis thaliana DGCR14-like fused with the C-terminal fragment of CFP) (other)
chain: MFLSPGHSPRQISSPSPSSYSDDTLRSTPRSSSSEIIPRNPRKRMRVLDEDAYVEAIEKIIERDYFPDITKLRDRLDWIQAVKTRDPIQIRDAQLKIIERRGKKANHHVGDTEGKTQTPGSTFLRNFTPLDEFDGKTPRTPGVSGREFHGVEVDAGDGDEDIDLNLSLDEFFRRYTSEDNESFSKILEKVNRKKKEKYGFLLEGEKEDGKSIEDVKRDRITDGYGTSDQPPSTLEGWKYTAKNLLMYHPADRGEAPLTEAERAVRLLGLTKEIVKGNTRFHGKTMDSRPREDGSVEILYTPIAGSSPMHISGRDRDKSKRYDLDDLRKTPNPFYVESDKRADNGYSFVRTPSPAPGLDESPFITWGEIDGTPMRLDLEDTPIDIGGSADGPHYNIPSAPPRDVRAHSLSRDASRKLRERSNSMFKKPPLPSPHRSGSASPNVRTLSPAAQKFFRKAIAKSSSTVDESLRASYRGASPRGASPGAVTPKSVRSISRFGKDGTSSETRSP
notes: BiFC fusion transiently expressed in Arabidopsis leaf mesophyll protoplasts; also called Ath DGCR14l; Arabidopsis DGCR14; not shown: C-terminal fragment of CFP (cCFP) from vector pSATI-cCFP-C
B3: nVenus-U1-70 k (U1 SMALL NUCLEAR RIBONUCLEOPROTEIN-70K fused with the N-terminal fragment of Venus) (other, Arabidopsis, UniProt Q42404 1-427, looked up)
chain: MGDSGDPFLRNPNAAVQARAKVQNRANVLQLKLMGQSHPTGLTNNLLKLFEPRPPLEYKPPPEKRKCPPYTGMAQFVSNFAEPGDPEYAPPKPEVELPSQKRERIHKLRLEKGVEKAAEDLKKYDPNNDPNATGDPYKTLFVSRLNYESSESKIKREFESYGPIKRVHLVTDQLTNKPKGYAFIEYMHTRDMKAAYKQADGQKIDGRRVLVDVERGRTVPNWRPRRLGGGLGTSRVGGGEEIVGEQQPQGRTSQSEEPSRPREEREKSREKGKERERSRELSHEQPRERSRDRPREDKHHRDRDQGGRDRDRDSRRDRDRTRDRGDRDRRDRDRGRDRTSRDHDRDRSRKKERDYEGGEYEHEGGGRSRERDAEYRGEPEETRGYYEDDQGDTDRYSHRYDKMEEDDFRYEREYKRSKRSESREYVR
notes: BiFC fusion transiently expressed in Arabidopsis protoplasts; also called AT3G50670; not shown: N-terminal fragment of Venus (nVenus) from vector pSATI-nVenus-C

Tests used:
Assay in all cases: bimolecular fluorescence complementation (BiFC) in Arabidopsis protoplasts
[1] = target: T1, cCFP-DGCR14/ESS2 (human DGCR14/ESS2 …)
Procedure: (§1) Protoplast isolation and transfection were performed as previously described (Xie et al. (The Plant Cell 30, 1645-1660 (2018)). For subcellular localization, 8 μg of DGCR14l-YFP and DGCR14/ESS2-YFP constructs were co-transfected with 2 μg of the nuclear marker construct (mCherry-)VirD2NLS), respectively, into 100 μl of protoplasts (˜2×10⁴ cells) to determine their subcellular localizations. For colocalization, paired constructs (5 μg each) were co-transfected into 100 μl of protoplasts. For BiFC, paired genes were cloned into pSATI-nVenus-C (fuse with nVenus) and pSATI-cCFP-C (fuse with cCFP), respectively. Then their expression cassettes were cloned into pUC119 (pUC-RCS) vector using AscI for transient expression in protoplasts. The generated constructs (4 μl of nVenus construct and 4 μl of cCFP construct) were co-transfected with 2 μl of the nuclear marker construct (mCherry-VirD2NLS) into 100 μl of protoplasts. After 14 h incubation under weak light at room temperature, protoplasts were collected and resuspended in cold W5 solution (2 mM MES pH 5.7, 154 mM NaCl, 125 mM CaCl₂, and 5 mM KCl) to subject to microscopy. Images were collected using a Zeiss LSM 710 confocal microscope, equipped with 514 and 561 nm laser lines for excitation of YFP and mCherry, respectively. Images were processed using Zen software (Zeiss).
(§2) To further test the association of DGCR14l and DGCR14/ESS2 with spliceosome, a bimolecular fluorescence complementation (BiFC) assay was performed in Arabidopsis protoplasts. In this assay, DGCR14 orthologs and U1-70 k were fused with split YFP (C-terminal fragment of CFP (cCFP) and N-terminal of Venus (nVenus)), and co-expressed in protoplasts. The interaction between two proteins will bring cCFP and nVenus together to form a functional YFP, which then leads to fluorescence. […] In contrast, no YFP signal was detected from DGCR14l-U2B or DGCR14/ESS2-U2B interaction (FIG. 2C), further supporting DGCR14's selectivity on spliceosome components.

[2] = target: B3
Procedure: as §1, §2

[3] = target: B1
Procedure: as §1, §2

| binding result [1] | binding result [2] | binding result [3] | Binder |
| --- | --- | --- | --- |
| no binding | – | – | B1 |
| – | binds | no binding | B2 |
| binds | – | – | B3 |
